For one molecule, Kd results are on record in PMC9463536 (The Journal of Biological Chemistry, 2022).

Usually Kd stands for the free concentration of one partner at which half of the binding sites on the other are occupied at equilibrium, for simple one-to-one binding.

The assay deals with T1, human claudin-4, biotinylated with NHS-PEG4-biotin (human, UniProt O14493 1-209).
T1 construct: also called biotinylated claudin-4
T1 sequence: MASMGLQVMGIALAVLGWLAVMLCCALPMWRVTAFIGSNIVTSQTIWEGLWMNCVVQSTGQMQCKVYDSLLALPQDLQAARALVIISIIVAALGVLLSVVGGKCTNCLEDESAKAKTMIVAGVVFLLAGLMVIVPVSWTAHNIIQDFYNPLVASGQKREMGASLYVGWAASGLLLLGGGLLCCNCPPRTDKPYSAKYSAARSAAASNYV
In words: BLI. Particulars: both partners purified.

B1: cCpE^1 (cCpE^[change]) (domain or fragment)
chain: KEILDLAAATERLNLTDALNSNPAGNLYDWRSSNSYPWTQKLNLHLTITATGQKYRILASKIVDFNIYSNNFNNLVKLEQSLGDGVKDHYVDISLDAGQYVLVMKANSSYSGNYPYSILFQKF
As to B1, the equilibrium dissociation constant (Kd) is approximately 3 nM.
